This is an account of results in US20220340642A1 (Kyowa Kirin, published 2022).

Numbering of substitutions follows the chain as printed. In names and notes the source's numbering stands.

Test [1] has as its target T1, primary soluble FasL produced from human T cells stimulated for AICD (human, UniProt P48023 130-281, limits assumed).
T1 construct: also called soluble FasL derived from human T cells
T1 sequence (looked up): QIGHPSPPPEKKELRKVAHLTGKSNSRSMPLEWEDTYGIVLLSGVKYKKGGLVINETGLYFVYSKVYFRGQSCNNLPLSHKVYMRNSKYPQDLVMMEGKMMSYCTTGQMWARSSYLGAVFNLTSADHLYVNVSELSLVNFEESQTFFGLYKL
Description: sandwich ELISA, binder captured. Here is the method:
(§1) Then, 10 μg/mL of anti-human IgG antibodies (American Qualex International, Inc.) were immobilized to a 96-well immunoplate (Thermo Scientific), and blocking was performed with 2% Block Ace (DS Pharma Biomedical Co., Ltd.), and then 2 μg/mL of chimera A-Fc, E57K-Fc and 45-18-Fc (in all of which Fc is Eg1S YTE or Eg1S […]) were captured. The culture supernatant of human T cells stimulated for LIGHT production was concentrated 6-fold using Amicon Ultra-15 having a molecular weight cutoff of 3 kDa (Merck Millipore) prerinsed with sterile water. After the plate was washed, the 6-fold concentrated culture supernatant was reacted. As a standard of LIGHT, the soluble recombinant FLAG-LIGHT trimer produced in Example 13 was used. After the plate was washed, a biotinylated anti-LIGHT antibody (R&D Systems, Inc.) was reacted. After the plate was washed, streptavidin-HRP (PIERCE) was reacted. After washing again, a TMB solution (Dako) was added to develop a color. Then, a 2 N sulfuric acid solution was used to stop the chromogenic reaction, and the absorbance at 450 nm (reference wavelength of 570 nm) was measured.
(§2) Sandwich ELISA was performed by the same method as in (1). On a 96-well immunoplate, chimera A-Fc, E57K-Fc and 45-18-Fc (in all of which Fc is Eg1S YTE or Eg1S […]) or the anti-human TL1A antibody produced in Example 16 was captured. Then, with the plate, a 4-fold concentrated culture supernatant of PBMCs stimulated for TL1A production or as a standard, the soluble recombinant His6-TL1A trimer produced in Example 13 was reacted, followed by detection with a biotinylated anti-TL1A antibody (R&D Systems, Inc.).
(§3) Sandwich ELISA was performed by the same method as in (1). On a 96-well immunoplate, chimera A-Fc, E57K-Fc and 45-18-Fc (each including Eg1S YTE or Eg1S […] as an Fc) or Fas-Fc (R&D Systems, Inc.) was captured, and then a 6-fold concentrated culture supernatant of human T cells stimulated for AICD or as a standard, Human His6 Fas Ligand/TNFSF6 (Cell Signaling Technology, Inc.) was reacted, followed by detection with a biotinylated anti-FasL antibody included with Human Fas Ligand ELISA Kit (Abcam plc).

The target in test [2] is primary soluble LIGHT produced from activated human T cells (human, UniProt O43557 83-240, limits assumed). Kind of test: sandwich ELISA, binder captured. Here is the method:
as §1, §2, §3

The target of test [3] is T2, primary soluble TL1A produced from an activated human PBMC (human, UniProt O95150 72-251, limits assumed).
T2 sequence (looked up): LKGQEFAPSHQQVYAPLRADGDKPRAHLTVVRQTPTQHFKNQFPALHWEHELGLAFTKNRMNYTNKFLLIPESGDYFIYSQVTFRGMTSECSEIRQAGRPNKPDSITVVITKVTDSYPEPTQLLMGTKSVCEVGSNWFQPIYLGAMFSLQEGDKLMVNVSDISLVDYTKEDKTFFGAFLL
Description: sandwich ELISA, binder captured. As for the experimental part: as §1, §2, §3
For orientation: An ELISA detects its analyte on a solid surface through an enzyme-linked reagent.

Test [4] has as its target T3, membrane-bound human TL1A (Met and FLAG tag at the N-terminus) on CHO-K1 cells (human, UniProt O95150 2-251).
T3 construct: also called TL1A/CHO
T3 sequence: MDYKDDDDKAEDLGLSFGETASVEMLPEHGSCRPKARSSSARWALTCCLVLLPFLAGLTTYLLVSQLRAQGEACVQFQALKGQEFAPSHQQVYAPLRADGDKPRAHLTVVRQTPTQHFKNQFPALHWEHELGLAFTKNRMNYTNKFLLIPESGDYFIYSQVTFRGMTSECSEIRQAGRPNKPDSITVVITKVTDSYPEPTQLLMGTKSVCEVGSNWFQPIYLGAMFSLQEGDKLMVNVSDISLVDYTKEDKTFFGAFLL
Kind of test: flow cytometry on expressing cells. The procedure, abridged:
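Binding was measured by flow cytometry on HEK293 cells forced to express membrane-bound LIGHT and on cell lines expressing N-terminally Met/FLAG-tagged TL1A or FasL from a CMV-promoter pClpuro vector. Cells at 1×10⁵ cells/well received 1 or 10 μg/mL protein on ice for 1 hour. After washing, cells were stained on ice for 1 hour with LIVE/DEAD Fixable Aqua and R-phycoerythrin goat F(ab′)₂ anti-human IgG (10 ng/mL, 0.1 or 1 μg/mL). Fluorescence was read on a FACS Fortessa.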

Test [5] has as its target T4, soluble recombinant of human TL1A (His6, GS linker, Leu72-Leu251) (UniProt O95150 72-251).
T4 chain: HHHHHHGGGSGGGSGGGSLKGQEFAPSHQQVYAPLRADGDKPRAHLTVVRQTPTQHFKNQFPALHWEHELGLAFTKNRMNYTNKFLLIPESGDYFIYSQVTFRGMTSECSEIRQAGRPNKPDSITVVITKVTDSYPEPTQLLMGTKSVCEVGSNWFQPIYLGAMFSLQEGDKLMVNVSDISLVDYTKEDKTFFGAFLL
Kind of test: BIAcore SPR. The method in brief: (§4)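 The dissociation constant (Kd, nM) reflects binding of each test molecule to soluble recombinant His-tagged human or cynomolgus monkey LIGHT, TL1A or FasL. It was derived from surface plasmon resonance measurements in HBS-EP+ Buffer using a BIAcore T-100 or T-200 instrument (GE Healthcare).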

The target in test [6] is T5, soluble recombinant of human LIGHT (His10, GS linker, Asp74-Val240).
T5 chain: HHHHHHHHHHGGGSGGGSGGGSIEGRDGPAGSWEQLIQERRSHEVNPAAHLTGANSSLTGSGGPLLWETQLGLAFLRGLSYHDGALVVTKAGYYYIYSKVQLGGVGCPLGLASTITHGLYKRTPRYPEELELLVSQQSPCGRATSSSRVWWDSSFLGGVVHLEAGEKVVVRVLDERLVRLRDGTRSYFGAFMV
Kind of test: BIAcore SPR. The procedure, abridged:
as §4

In test [7] the target is T6, soluble recombinant of human FasL (His6, Pro134-Leu281) (UniProt P48023 134-281).
T6 chain: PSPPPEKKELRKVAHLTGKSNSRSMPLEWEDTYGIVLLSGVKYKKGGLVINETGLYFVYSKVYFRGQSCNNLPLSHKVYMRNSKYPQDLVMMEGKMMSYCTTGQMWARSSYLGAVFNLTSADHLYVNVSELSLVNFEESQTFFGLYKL
Kind of test: BIAcore SPR. The procedure, abridged: as §4
(SPR reads the build-up and loss of mass on a sensor chip optically.)

B1: chimera A-Fc (Eg1S YTE) (Fc fusion)
chain: ETFPPKYLHYDEETSHQLLCDKCPPGTYLKQHCTAKWKTVCAPCPPRHYTQFWNYLERCRYCNVLCGEREEEARACHATHNRACRCRTGFFAHAGFCLEHASCPPGAGVIAPGTPSQNTQCQPCPDGFFSNETSSKAPCRKHTNCSVFGLLLTQKGNATHDNICSGNSESTQKEPKSSDKTHTCPPCPAPELLGGPSVFLFPPKPKDTLYITREPEVTCVVVDVSHEDPEVKFNWYVDGVEVHNAKTKPREEQYNSTYRVVSVLTVLHQDWLNGKEYKCKVSNKALPAPIEKTISKAKGQPREPQVYTLPPSRDELTKNQVSLTCLVKGFYPSDIAVEWESNGQPENNYKTTPPVLDSDGSFFLYSKLTVDKSRWQQGNVFSCSVMHEALHNHYTQKSLSLSPGK
On to B1, for which the binding result in test [1], in test [2], in test [3] and in test [4] was “binds” each time. Further, the Kd in test [5] stood at 0.16 nM; in test [6] it was 0.27 nM; in test [7] it was 1.2 nM.

B2: chimera A-E57K-Fc (Eg1S LALAGANA) (Fc fusion)
chain: B1 chain with E57K, L192A, L193A, G195A, Y210M, T212S, E214T, N392A
As to B2, the binding result in test [1], in test [2], in test [3] and in test [4] was “binds” each time. Moreover, the results for the Kd in test [5], in test [6] and in test [7] were 0.24 nM, 0.34 nM and 3.3 nM, respectively.

B3: chimera A-E57K-Fc (Eg1S YTE) (Fc fusion)
chain: B1 chain with E57K
Turning to B3, the binding result in test [1], in test [2], in test [3] and in test [4] was “binds” throughout. For the same molecule, the Kd in test [5] came out at 0.28 nM; in test [6], 0.38 nM; in test [7], 4.3 nM.

B4: chimera A-E57K_R58E-Fc (Eg1S LALAGANA) (Fc fusion)
chain: B1 chain with E57K, R58E, L192A, L193A, G195A, Y210M, T212S, E214T, N392A
Take B4: the binding result in test [1], in test [2], in test [3] and in test [4] was “binds” throughout. In addition, the Kd in test [5] worked out at 0.16 nM; in test [6], 0.29 nM; in test [7], 4.6 nM.

B5: chimera A-Fc (Eg1S LALAGANA) (Fc fusion)
chain: B1 chain with L192A, L193A, G195A, Y210M, T212S, E214T, N392A
For B5, the binding result in test [1], in test [2], in test [3] and in test [4] was “binds” throughout. Further, the Kd is 0.12 nM in test [5], 0.2 nM in test [6] and 0.75 nM in test [7].

B6: chimera A-E57K_R58E-Fc (Eg1S YTE) (Fc fusion)
chain: B1 chain with E57K, R58E
notes: also called 45-18-Fc (Eg1S YTE)
On to B6, for which the binding result in test [1], in test [2], in test [3] and in test [4] was “binds” in each case. Also, the values for the Kd in test [5], in test [6] and in test [7] were 0.2 nM, 0.33 nM and 5.6 nM, respectively.

The Kd is the constant that tells how readily two partners part at equilibrium.
